The values that follow come from US20220177583A1 (University of California, published 2022).

Changes are numbered by the printed parent chain.

Assay [1] concerns the target T1, mouse CLDN6 fused to GFP, expressed on engineered HEK293T cells (mouse, UniProt Q9Z262 1-219).
T1 construct: whole, on cells; also called HEK293T-CLDN6-mGFP Artificial CLDN6+ (mouse); murine CLDN6; not shown: GFP tag
T1 sequence (looked up): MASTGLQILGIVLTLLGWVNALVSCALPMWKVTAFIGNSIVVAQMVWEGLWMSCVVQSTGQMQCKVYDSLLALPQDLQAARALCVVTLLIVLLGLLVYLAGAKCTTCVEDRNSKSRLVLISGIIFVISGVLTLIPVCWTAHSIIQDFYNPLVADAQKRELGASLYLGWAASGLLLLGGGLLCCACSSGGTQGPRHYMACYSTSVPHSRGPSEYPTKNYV
Kind of assay: FACS, 293T clone with mouse CLDN6.

For assay [2], the target named is T2, human CLDN6, endogenously expressed on cancer cell lines (human, UniProt P56747 1-220).
T2 construct: also called Endogenous CLDN6+; CLDN6 on ARK2, OVCA429, UMUC4 cells
T2 sequence: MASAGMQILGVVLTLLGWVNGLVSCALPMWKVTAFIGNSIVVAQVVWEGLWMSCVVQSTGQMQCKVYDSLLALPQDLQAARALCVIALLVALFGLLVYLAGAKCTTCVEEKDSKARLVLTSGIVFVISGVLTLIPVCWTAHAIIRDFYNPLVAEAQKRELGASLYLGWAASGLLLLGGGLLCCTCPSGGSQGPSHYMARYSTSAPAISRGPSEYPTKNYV
Kind of assay: FACS, ARK2 cells, 1.5 ug Ab.

Assay [3] addresses T2, human CLDN6, endogenously expressed on …. Kind of assay: FACS, ARK2 cells, 0.3 ug Ab. In general terms: In flow cytometry, cells or beads pass a laser one at a time.
Assay [4] has the same target. The experiment in a line: FACS, OVCA429 cells, 1.5 ug Ab.

B1: AB4-6 (antibody, V domains shown)
VH: QVQLVQSGAEVKKPGASVKMSCKASGYTFTSYTMHWIRQAPGQGLEWIGYINPSSTYTHYAQKFQGRATLTADKSTSTAYMELSSLRSEDTAVYYCSRGELGGFAYWGQGTLVTVSS
VL: DVVMTQSPLSLPVTLGQPASISCRSSQSLVHSDGNTYLNWYQQRPGQSPRLLIYKVSNRFSGVPDRFSGSGSGTDFTLKISRVEAEDVGVYYCSQSTHVPYTFGQGTKLEIK
notes: Humanized; also called humanized AB 4-6
With B1, the FACS signal in assay [1] is 14200; in assay [2], 9840; in assay [3] it was 3300.

B2: AB4-9 (antibody, V domains shown)
VH: B1 VH with A61I, Q62K, Q65K, G66D, K74T
VL: B1 VL
notes: Humanized; full-length IgG; see note of AB4-8; also called humanized AB 4-9
For the molecule B2, the FACS signal in assay [1] was found to be 1780; in assay [2], 7790; in assay [3], 3060.

B3: AB4-12 (antibody, V domains shown)
VH: B1 VH with L45Q, A61I, Q62K, Q65K, G66D
VL: B1 VL
notes: Humanized; full-length IgG; see note of AB4-8; also called humanized AB 4-12
B3: the figures for the FACS signal in assay [1], in assay [2] and in assay [3] were 1130, 24200 and 9690, respectively.

B4: AB4-8 (antibody, V domains shown)
VH: QVQLVQSGAEVKKPGASVKVSCKASGYTFTSYTMHWVRQAPGQGLEWMGYINPSSTYTHYIKKFKDRVTMTADTSTSTVYMELSSLRSEDTAVYYCSRGELGGFAYWGQGTLVTVSS
VL: B1 VL
notes: Humanized; full-length IgG; also called humanized AB 4-8
On to B4, for which the values for the FACS signal in assay [1], in assay [2] and in assay [3] were 4700, 7310 and 3120, respectively.

B5: AB4-7 (antibody, V domains shown)
VH: B1 VH with L45Q
VL: B1 VL
notes: Humanized; also called humanized AB 4-7
Turning to B5, the FACS signal was 6640 in assay [1], 7560 in assay [2] and 2770 in assay [3].

B6: AB4-10 (antibody, V domains shown)
VH: B1 VH with L45Q, A61I, Q62K, Q65K, G66D, K74T
VL: B1 VL
notes: Humanized; full-length IgG; see note of AB4-8; also called humanized AB 4-10
B6: the FACS signal stood at 2650 in assay [1], 20200 in assay [2] and 7210 in assay [3].

B7: AB4-11 (antibody, V domains shown)
VH: B1 VH with A61I, Q62K, Q65K, G66D
VL: B1 VL
notes: Humanized; full-length IgG; see note of AB4-8; also called humanized AB 4-11
Take B7: the FACS signal turned out to be 1230 in assay [1], 9170 in assay [2] and 6390 in assay [3].

B8: AB18-chim (antibody, V domains shown)
VH: QVQLKQSGPELEKPGASVKISCKASGYSFTGYNMNWVKQSNGKSLEWIGNIDPYYGGSTYNQKFTGKATLTVDKSSSTAYMQLKSLTSEDSAVYYCARERSGYVFSAMDYWGQGTSVTVSS
VL: NIMMTQSPSSLAVSAGEKVTMSCKSSQSVLFSSNQKNYLAWYQQKPGQSPRLLIYWASTRESGVPDRFTGSGSGTDFTLTISNVQAEDLAVYYCHQYLSSRTFGAGTKLELK
notes: Parental antibody prior to humanization ('chim'); also called pre-humanized form of AB18
Regarding B8, the FACS signal was 9150 in assay [2], 3440 in assay [3] and 25500 in assay [4].

B9: AB1-7 (antibody, V domains shown)
VH: QVQLVQSGAEVKKPGASVKMSCKASGYTFTTYTMHWVRQAPGQGLEWIGFINPSSGYTDYAQKFQGRVTLTADTSTSTVYMELSSLRSEDTAVYYCANGDYYVAYWGQGTLVTVSS
VL: DIQLTQSPSSLSASVGDRVTMTCTASSSVSSTYFHWYQQKPGKAPKLLIYSTSNLASGVPSRFSGSGSGTDYTLTISSMQPEDAATYYCHQYHRSPLTFGQGTKLEIK
notes: Humanized; also called humanized AB 1-7
Turning to B9, the FACS signal came out at 99700 in assay [1], 11200 in assay [2], 4440 in assay [3] and 44700 in assay [4].

B10: AB1-11 (antibody, V domains shown)
VH: B9 VH with T74K
VL: B9 VL with L48W
notes: Humanized; also called humanized AB1-11; HU-11
Take B10: the FACS signal came to 101000 in assay [1], 97700 in assay [2] and 53900 in assay [3].

B11: AB1-Chim (antibody, V domains shown)
VH: QVQLQQSAAELARPGASVKMSCKASGYTFTTYTMHWVKQRPGQGLEWIGFINPSSGYTDYNQKFKDRTTLTADKSSSTVYMQLSSLTSEDSAVYYCANGDYYVAYWGQGTLVTVSA
VL: QIVLTQSPAIMSASLGERVTMTCTASSSVSSTYFHWYQQKPGSSPKLWIYSTSNLASGVPRRFSGSASGTSYSLTISSMEAEDAATYYCHQYHRSPLTFGAGTKLELK
notes: Parental antibody prior to humanization ('chim'); also called pre-humanized form of AB1
Turning to B11, the FACS signal in assay [1] was found to be 514000; in assay [2], 51900; in assay [3] it was 58800; in assay [4] it was 177000.

B12: AB4-chim (antibody, V domains shown)
VH: QVQLQQSGAELARPGASVKMSCKASGYTFTSYTMHWIKQRPGQGQEWIGYINPSSTYTHYIKKFKDKATLTADKSSSTAYMQLRSLTSEDSAVYYCSRGELGGFAYWGQGTLVTVSA
VL: DVVMTQTPLSLPVSLGDQASISCRSSQSLVHSDGNTYLNWYLQKPGQSPKLLIYKVSNRFSGVPDRFSGSGSGTDFTLKIRRVEAEDLGVYFCSQSTHVPYTFGGGTKLEIK
notes: Parental antibody prior to humanization ('chim'); also called pre-humanized form of AB4
B12: the FACS signal in assay [2] was 38400; in assay [3] it was 19100; in assay [4], 64800.

B13: AB18-3 (antibody, V domains shown)
VH: QVQLVQSGAEVKKPGASVKVSCKASGYSFTGYNMNWVRQAPGQGLEWMGNIDPYYGGSTYAQKFQGRVTMTVDTSTSTVYMELSSLRSEDTAVYYCARERSGYVFSAMDYWGQGTLVTVSS
VL: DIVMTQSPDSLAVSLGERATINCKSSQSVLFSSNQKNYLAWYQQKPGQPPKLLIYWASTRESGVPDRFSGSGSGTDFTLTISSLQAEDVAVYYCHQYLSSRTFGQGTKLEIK
notes: Humanized; full-length IgG; also called humanized AB 18-3
In the case of B13, the results for the FACS signal in assay [2], in assay [3] and in assay [4] were 1210, 1080 and 2700, respectively.

B14: AB18-6 (antibody, V domains shown)
VH: B13 VH with V20I, M48I, V68A, M70L, V79A
VL: DIVMTQSPDSLAVSLGERVTMNCKSSQSVLFSSNQKNYLAWYQQKPGQPPKLLIYWASTRESGVPDRFSGSGSGTDFTLTISSVQAEDVAVYYCHQYLSSRTFGQGTKLEIK
notes: Humanized; also called humanized AB 18-6
As to B14, the figures for the FACS signal in assay [2], in assay [3] and in assay [4] were 1940, 1390 and 6750, respectively.

B15: AB18-4 (antibody, V domains shown)
VH: B13 VH
VL: B14 VL
notes: Humanized; also called humanized AB 18-4
Turning to B15, the figures for the FACS signal in assay [2], in assay [3] and in assay [4] were 1380, 1130 and 3220, respectively.

B16: AB18-5 (antibody, V domains shown)
VH: B13 VH with V20I, M48I, V68A, M70L, V79A
VL: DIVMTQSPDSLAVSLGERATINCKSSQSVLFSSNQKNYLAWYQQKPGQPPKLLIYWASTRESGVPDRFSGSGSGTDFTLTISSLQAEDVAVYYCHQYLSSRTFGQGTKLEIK
notes: Humanized; also called humanized AB 18-5
Consider B16, for which the figures for the FACS signal in assay [2], in assay [3] and in assay [4] were 1330, 1310 and 4270, respectively.

B17: AB3-2 (antibody, V domains shown)
VH: EVQLLESGGGLVQPGGSMRLSCAASGFTFSNYWMNWVRQAPGKGLEWVAQIRLKSDNYATHYADSVKGRFTISRDDSKNTVYLQMNSLRAEDTGVYYCNDGPPSGCWGQGTLLTVSS
VL: DIQMTQSPSSLSASVGDRVTITCRISENIYSYLAWYQQKPGKAPKLLIYNAKILVEGVPSRFSGSGSGTDFTLTISSLQPEDFATYYCQHHYTVPWTFGQGTKLEIK
notes: Humanized; also called humanized AB 3-2
As for B17, the FACS signal is 31700 in assay [1], 33600 in assay [2], 14700 in assay [3] and 85900 in assay [4].

B18: AB3-5 (antibody, V domains shown)
VH: B17 VH with C106Y
VL: B17 VL with I48V, A84G
notes: Humanized; also called humanized AB 3-5
For the molecule B18, the FACS signal in assay [1] stood at 783; in assay [2], 2910; in assay [3], 1280; in assay [4] it was 2950.

B19: AB9-3 (antibody, V domains shown)
VH: QVQLVQSGAEVKKPGASVKMSCKASGYRFTDYNMHWVRQAPGQGLEWIGYINPNNGGTNYAQKFQGRATLTVDTSTSTAYMELSSLRSEDTAVYYCARDYLYFFDCWGQGTLLTVSS
VL: DIQMTQSPSSLSASVGDRVTITCLASQTIGTWLAWYQQKPGKAPKLLIYAAASLADGVPSRFSGSGSGTDFTFTISSLQPEDFVTYYCQQLYSIPRTFGQGTKLEIK
notes: Humanized; also called humanized AB 9-3
For B19, the FACS signal in assay [2] was 1470; in assay [3], 1140; in assay [4], 1260.

B20: AB9-chim (antibody, V domains shown)
VH: EVQLQQSGPELVKPGASVKMSCKASGYRFTDYNMHWVKQSHGKSLEWIGYINPNNGGTNYNQNFKGKATLTVNKSSSTAYMELRSLTSEDSAAYYCARDYLYFFDCWGQGTTLTVSS
VL: DIQMTQSPASQSASLGESVTITCLASQTIGTWLAWYQQKPGKSPQLLIYAAASLADGVPSRFSGSGSGTRFSFKISSLQAEDFVSYYCQQLYSIPRTFGGGTKLEIK
notes: Parental antibody prior to humanization ('chim'); also called pre-humanized form of AB9
Take B20: the results for the FACS signal in assay [2], in assay [3] and in assay [4] were 4490, 3510 and 3570, respectively.
